Assay [1] concerns the target T1, APJ receptor (Homo sapiens, UniProt P35414).
T1 construct: purchased Perkin Elmer, Waltham, Mass; host or cells: transfected CHO cells (membrane fraction)
T1 sequence (P35414 1-380): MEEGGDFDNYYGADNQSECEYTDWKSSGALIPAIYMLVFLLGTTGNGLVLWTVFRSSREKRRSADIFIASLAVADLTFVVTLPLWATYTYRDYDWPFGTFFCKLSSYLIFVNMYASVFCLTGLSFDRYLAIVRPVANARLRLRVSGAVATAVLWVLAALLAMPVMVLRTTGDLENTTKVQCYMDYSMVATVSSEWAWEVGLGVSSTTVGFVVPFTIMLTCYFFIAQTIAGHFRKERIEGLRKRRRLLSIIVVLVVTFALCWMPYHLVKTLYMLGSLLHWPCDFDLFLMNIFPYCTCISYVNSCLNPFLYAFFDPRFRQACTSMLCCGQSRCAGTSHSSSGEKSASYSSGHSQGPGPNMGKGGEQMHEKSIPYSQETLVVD
As to the kind of experiment: APJ receptor binding assay (competitive radioligand binding). The note with it: negative control. Here is the method:
The binding was performed using competition with ^125I-labelled [Glp^65, Nle^75, Tyr^77]-apelin13 probe for binding to the APJ receptor in a membrane fraction from the transfected CHO cells (Perkin Elmer, Waltham, Mass.). Serially diluted peptide was incubated with membrane and probe for 1 hour at room temperature. The mixture was then filtered over a 1.2 um glass fiber type C filterplate (Millipore Corp., Billerica, Mass.), preblocked with 0.5% polyethylenimine. The plate was washed 4 times with 200 ul ice cold binding buffer and then another 4 times with ice cold 50 mM Tris-HCl, pH7.4, dried and counted with scintillation fluid. The data was analyzed with Graphpad Prism 4 (GraphPad Software, Inc, La Jolla, Calif.) using nonlinear regression.

The target of assay [2] is T2, APJ receptor in a membrane fraction from transfected CHO cells (Perkin Elmer) (UniProt P35414 1-380, limits assumed).
T2 construct: whole, on cells; The receptor stood in a membrane fraction of transfected CHO cells, not on whole cells
T2 sequence (looked up): T1 sequence (P35414 1-380)
The assay is described as follows: competitive radioligand binding, 125I-[Glp65, Nle75, Tyr77]-apelin13 probe, APJ membranes from transfected CHO cells. The method, then:
The mixture was then filtered over a 1.2 um glass fiber type C filterplate (Millipore Corp., Billerica, Mass.), preblocked with 0.5% polyethylenimine. The plate was washed 4 times with 200 ul ice cold binding buffer and then another 4 times with ice cold 50 mM Tris-HCl, pH7.4, dried and counted with scintillation fluid. The data was analyzed with Graphpad Prism 4 (GraphPad Software, Inc, La Jolla, Calif.) using nonlinear regression.

“α-MSH: 13 amino acid α-MSH peptide negative control”: in assay [1], the “binding to APJ receptor (in words)” value is listed as “no binding”.

In the case of SYSMEHFRWGKPV (peptide, UniProt P01189 138-150, looked up, also called negative control) [13 amino acid α-MSH peptide], the binding result in assay [2] was “no binding”.

These data come from US20140142049A1, “PEGYLATED APELIN AND USES THEREOF” (priority 2011, published 2014).
